Key:
HeLa Kyoto [1] = assay: solubility change mitosis vs G1/S (difference of NP-40 vs SDS log2 ratios) (log2 ratio difference); higher = more soluble in mitosis
HeLa Kyoto [2] = assay: thermal stability score vs G1/S (z-score of summed log2 fold changes over temperatures); higher = more thermally stable than in G1/S
HeLa Kyoto [3] = assay: solubility in G1/S (NP-40 vs SDS abundance) (log2 ratio); higher = more soluble; conditions: cell cycle stage: G1/S
[4] = cell cycle stage: early G1 (4.5 h after nocodazole release)
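Wherever solubility change mitosis vs G1/S (difference of NP-40 vs SDS log2 ratios) is given: synchronized HeLa Kyoto cells (double thymidine block for G1/S, nocodazole release for mitosis), protein amounts in NP-40 versus SDS lysates quantified by mass spectrometry, three biological replicates.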
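Wherever solubility in G1/S (NP-40 vs SDS abundance) is given: HeLa Kyoto cells arrested at G1/S by double thymidine block, proteins quantified by TMT10plex mass spectrometry in mild NP-40 versus SDS extracts, three biological replicates.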
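Wherever thermal stability score vs G1/S (z-score of summed log2 fold changes over temperatures) is given: synchronized HeLa Kyoto cells, proteins quantified by TMT10plex mass spectrometry, three biological replicates, mitosis taken 0.5 h after nocodazole release, G1/S directly after double thymidine block.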

Row | Sequence | solubility change mitosis (log2) (HeLa Kyoto [1]) | thermal stability score (HeLa Kyoto [2]; [4]) | thermal stability score (HeLa Kyoto [2]; cell cycle stage: mitosis) | solubility in G1/S (log2) (HeLa Kyoto [3])
1 | MKEEAFLRRRFSLCPPSSTPQKVDPRKLTRNLLLSGDNELYPLSPGKDMEPNGPSLPRDEGPPTPSSATKVPPAEYRLCNGSDKECVSPTARVTKKETLKAQKENYRQEKKRATRQLLSALTDPSVVIMADSLKIRGTLKSWTKLWCVLKPGVLLIYKTPKVGQWVGTVLLHCCELIERPSKKDGFCFKLFHPLDQSVWAVKGPKGESVGSITQPLPSSYLIFRAASESDGRCWLDALELALRCSSLLRLGTCKPGRDGEPGTSPDASPSSLCGLPASATVHPDQDLFPLNGSSLENDAFSDKSERENPEESDTETQDHSRKTESGSDQSETPGAPVRRGTTYVEQVQEELGELGEASQVETVSEENKSLMWTLLKQLRPGMDLSRVVLPTFVLEPRSFLNKLSDYYYHADLLSRAAVEEDAYSRMKLVLRWYLSGFYKKPKGIKKPYNPILGETFRCCWFHPQTDSRTFYIAEQVSHHPPVSAFHVSNRKDGFCISGSITAKSRFYGNSLSALLDGKATLTFLNRAEDYTLTMPYAHCKGILYGTMTLELGGKVTIECAKNNFQAQLEFKLKPFFGGSTSINQISGKITSGEEVLASLSGHWDRDVFIKEEGSGSSALFWTPSGEVRRQRLRQHTVPLEEQTELESERLWQHVTRAISKGDQHRATQEKFALEEAQRQRARERQESLMPWKPQLFHLDPITQEWHYRYEDHSPWDPLKDIAQFEQDGILRTLQQEAVARQTTFLGSPGPRHERSGPDQRLRKASDQPSGHSQATESSGSTPESCPELSDEEQDGDFVPGGESPCPRCRKEARRLQALHEAILSIREAQQELHRHLSAMLSSTARAAQAPTPGLLQSPRSWFLLCVFLACQLFINHILK [OSBPL5] | 0.12 | 0.206 | 0.353 | -0.0107
2 | MKGFKLSCTASNSNRSTPACSPILRKRSRSPTPQNQDGDTMVEKGSDHSSDKSPSTPEQGVQRSCSSQSGRSGGKNSKKSQSWYNVLSPTYKQRNEDFRKLFKQLPDTERLIVDYSCALQRDILLQGRLYLSENWICFYSNIFRWETLLTVRLKDICSMTKEKTARLIPNAIQVCTDSEKHFFTSFGARDRTYMMMFRLWQNALLEKPLCPKELWHFVHQCYGNELGLTSDDEDYVPPDDDFNTMGYCEEIPVEENEVNDSSSKSSIETKPDASPQLPKKSITNSTLTSTGSSEAPVSFDGLPLEEEALEGDGSLEKELAIDNIMGEKIEMIAPVNSPSLDFNDNEDIPTELSDSSDTHDEGEVQAFYEDLSGRQYVNEVFNFSVDKLYDLLFTNSPFQRDFMEQRRFSDIIFHPWKKEENGNQSRVILYTITLTNPLAPKTATVRETQTMYKASQESECYVIDAEVLTHDVPYHDYFYTINRYTLTRVARNKSRLRVSTELRYRKQPWGLVKTFIEKNFWSGLEDYFRHLESELAKTESTYLAEMHRQSPKEKASKTTTVRRRKRPHAHLRVPHLEEVMSPVTTPTDEDVGHRIKHVAGSTQTRHIPEDTPNGFHLQSVSKLLLVISCVICFSLVLLVILNMMLFYKLWMLEYTTQTLTAWQGLRLQERLPQSQTEWAQLLESQQKYHDTELQKWREIIKSSVMLLDQMKDSLINLQNGIRSRDYTSESEEKRNRYH [GRAMD1B] | 0.151 | -0.0752 | -0.742 | -0.0228
3 | MLLPWATSAPGLAWGPLVLGLFGLLAASQPQAVPPYASENQTCRDQEKEYYEPQHRICCSRCPPGTYVSAKCSRIRDTVCATCAENSYNEHWNYLTICQLCRPCDPVMGLEEIAPCTSKRKTQCRCQPGMFCAAWALECTHCELLSDCPPGTEAELKDEVGKGNNHCVPCKAGHFQNTSSPSARCQPHTRCENQGLVEAAPGTAQSDTTCKNPLEPLPPEMSGTMLMLAVLLPLAFFLLLATVFSCIWKSHPSLCRKLGSLLKRRPQGEGPNPVAGSWEPPKAHPYFPDLVQPLLPISGDVSPVSTGLPAAPVLEAGVPQQQSPLDLTREPQLEPGEQSQVAHGTNGIHVTGGSMTITGNIYIYNGPVLGGPPGPGDLPATPEPPYPIPEEGDPGPPGLSTPHQEDGKAWHLAETEHCGATPSNRGPRNQFITHD [LTBR] | 0.703 | -2.45 | -1.87 | -0.758
4 | MMPSRTNLATGIPSSKVKYSRLSSTDDGYIDLQFKKTPPKIPYKAIALATVLFLIGAFLIIIGSLLLSGYISKGGADRAVPVLIIGILVFLPGFYHLRIAYYASKGYRGYSYDDIPDFDD [TMEM230] | -0.0463 | -1.72 | -2.3 | 0.0716
5 | MNKGWLELESDPGLFTLLVEDFGVKGVQVEEIYDLQSKCQGPVYGFIFLFKWIEERRSRRKVSTLVDDTSVIDDDIVNNMFFAHQLIPNSCATHALLSVLLNCSSVDLGPTLSRMKDFTKGFSPESKGYAIGNAPELAKAHNSHARPEPRHLPEKQNGLSAVRTMEAFHFVSYVPITGRLFELDGLKVYPIDHGPWGEDEEWTDKARRVIMERIGLATAGEPYHDIRFNLMAVVPDRRIKYEARLHVLKVNRQTVLEALQQLIRVTQPELIQTHKSQESQLPEESKSASNKSPLVLEANRAPAASEGNHTDGAEEAAGSCAQAPSHSPPNKPKLVVKPPGSSLNGVHPNPTPIVQRLPAFLDNHNYAKSPMQEEEDLAAGVGRSRVPVRPPQQYSDDEDDYEDDEEDDVQNTNSALRYKGKGTGKPGALSGSADGQLSVLQPNTINVLAEKLKESQKDLSIPLSIKTSSGAGSPAVAVPTHSQPSPTPSNESTDTASEIGSAFNSPLRSPIRSANPTRPSSPVTSHISKVLFGEDDSLLRVDCIRYNRAVRDLGPVISTGLLHLAEDGVLSPLALTEGGKGSSPSIRPIQGSQGSSSPVEKEVVEATDSREKTGMVRPGEPLSGEKYSPKELLALLKCVEAEIANYEACLKEEVEKRKKFKIDDQRRTHNYDEFICTFISMLAQEGMLANLVEQNISVRRRQGVSIGRLHKQRKPDRRKRSRPYKAKRQ [BAP1] | -0.138 | 0.51 | 0.853 | 0.152
6 | MNNKFDALKDDDSGDHDQNEENSTQKDGEKEKTERDKNQSSSKRKAVVPGPAEHPLQYNYTFWYSRRTPGRPTSSQSYEQNIKQIGTFASVEQFWRFYSHMVRPGDLTGHSDFHLFKEGIKPMWEDDANKNGGKWIIRLRKGLASRCWENLILAMLGEQFMVGEEICGAVVSVRFQEDIISIWNKTASDQATTARIRDTLRRVLNLPPNTIMEYKTHTDSIKMPGRLGPQRLLFQNLWKPRLNVP [EIF4E2] | 0.000807 | -1.02 | -0.941 | 0.114
7 | MPSEGRCWETLKALRSSDKGRLCYYRDWLLRREDVLEECMSLPKLSSYSGWVVEHVLPHMQENQPLSETSPSSTSASALDQPSFVPKSPDASSAFSPASPATPNGTKGKDESQHTESMVLQSSRGIKVEGCVRMYELVHRMKGTEGLRLWQEEQERKVQALSEMASEQLKRFDEWKELKQHKEFQDLREVMEKSSREALGHQEKLKAEHRHRAKILNLKLREAEQQRVKQAEQERLRKEEGQIRLRALYALQEEMLQLSQQLDASEQHKALLKVDLAAFQTRGNQLCSLISGIIRASSESSYPTAESQAEAERALREMRDLLMNLGQEITRACEDKRRQDEEEAQVKLQEAQMQQGPEAHKEPPAPSQGPGGKQNEDLQVKVQDITMQWYQQLQDASMQCVLTFEGLTNSKDSQAKKIKMDLQKAATIPVSQISTIAGSKLKEIFDKIHSLLSGKPVQSGGRSVSVTLNPQGLDFVQYKLAEKFVKQGEEEVASHHEAAFPIAVVASGIWELHPRVGDLILAHLHKKCPYSVPFYPTFKEGMALEDYQRMLGYQVKDSKVEQQDNFLKRMSGMIRLYAAIIQLRWPYGNRQEIHPHGLNHGWRWLAQILNMEPLSDVTATLLFDFLEVCGNALMKQYQVQFWKMLILIKEDYFPRIEAITSSGQMGSFIRLKQFLEKCLQHKDIPVPKGFLTSSFWRS [GLE1] | 0.773 | 0.568 | 0.433 | -0.966
8 | MQRAAALVRRGCGPRTPSSWGRSQSSAAAEASAVLKVRPERSRRERILTLESMNPQVKAVEYAVRGPIVLKAGEIELELQRGIKKPFTEVIRANIGDAQAMGQQPITFLRQVMALCTYPNLLDSPSFPEDAKKRARRILQACGGNSLGSYSASQGVNCIREDVAAYITRRDGGVPADPDNIYLTTGASDGISTILKILVSGGGKSRTGVMIPIPQYPLYSAVISELDAIQVNYYLDEENCWALNVNELRRAVQEAKDHCDPKVLCIINPGNPTGQVQSRKCIEDVIHFAWEEKLFLLADEVYQDNVYSPDCRFHSFKKVLYEMGPEYSSNVELASFHSTSKGYMGECGYRGGYMEVINLHPEIKGQLVKLLSVRLCPPVSGQAAMDIVVNPPVAGEESFEQFSREKESVLGNLAKKAKLTEDLFNQVPGIHCNPLQGAMYAFPRIFIPAKAVEAAQAHQMAPDMFYCMKLLEETGICVVPGSGFGQREGTYHFRMTILPPVEKLKTVLQKVKDFHINFLEKYA [GPT2] | 0.017 | -0.2 | -0.215 | 0.0799
9 | MQSKVTGNMPTQSLLMYMDGPEVIGSSLGSPMEMEDALSMKGTAVVPFRATQEKNVIQIEGYMPLDCMFCSQTFTHSEDLNKHVLMQHRPTLCEPAVLRVEAEYLSPLDKSQVRTEPPKEKNCKENEFSCEVCGQTFRVAFDVEIHMRTHKDSFTYGCNMCGRRFKEPWFLKNHMRTHNGKSGARSKLQQGLESSPATINEVVQVHAAESISSPYKICMVCGFLFPNKESLIEHRKVHTKKTAFGTSSAQTDSPQGGMPSSREDFLQLFNLRPKSHPETGKKPVRCIPQLDPFTTFQAWQLATKGKVAICQEVKESGQEGSTDNDDSSSEKELGETNKGSCAGLSQEKEKCKHSHGEAPSVDADPKLPSSKEKPTHCSECGKAFRTYHQLVLHSRVHKKDRRAGAESPTMSVDGRQPGTCSPDLAAPLDENGAVDRGEGGSEDGSEDGLPEGIHLDKNDDGGKIKHLTSSRECSYCGKFFRSNYYLNIHLRTHTGEKPYKCEFCEYAAAQKTSLRYHLERHHKEKQTDVAAEVKNDGKNQDTEDALLTADSAQTKNLKRFFDGAKDVTGSPPAKQLKEMPSVFQNVLGSAVLSPAHKDTQDFHKNAADDSADKVNKNPTPAYLDLLKKRSAVETQANNLICRTKADVTPPPDGSTTHNLEVSPKEKQTETAADCRYRPSVDCHEKPLNLSVGALHNCPAISLSKSLIPSITCPFCTFKTFYPEVLMMHQRLEHKYNPDVHKNCRNKSLLRSRRTGCPPALLGKDVPPLSSFCKPKPKSAFPAQSKSLPSAKGKQSPPGPGKAPLTSGIDSSTLAPSNLKSHRPQQNVGVQGAATRQQQSEMFPKTSVSPAPDKTKRPETKLKPLPVAPSQPTLGSSNINGSIDYPAKNDSPWAPPGRDYFCNRSASNTAAEFGEPLPKRLKSSVVALDVDQPGANYRRGYDLPKYHMVRGITSLLPQDCVYPSQALPPKPRFLSSSEVDSPNVLTVQKPYGGSGPLYTCVPAGSPASSSTLEGKRPVSYQHLSNSMAQKRNYENFIGNAHYRPNDKKT [ZNF217] | 0.0502 | -1.13 | -0.808 | -0.201
10 | MSDILRELLCVSEKAANIARACRQQEALFQLLIEEKKEGEKNKKFAVDFKTLADVLVQEVIKQNMENKFPGLEKNIFGEESNEFTNDWGEKITLRLCSTEEETAELLSKVLNGNKVASEALARVVHQDVAFTDPTLDSTEINVPQDILGIWVDPIDSTYQYIKGSADIKSNQGIFPCGLQCVTILIGVYDIQTGVPLMGVINQPFVSRDPNTLRWKGQCYWGLSYMGTNMHSLQLTISRRNGSETHTGNTGSEAAFSPSFSAVISTSEKETIKAALSRVCGDRIFGAAGAGYKSLCVVQGLVDIYIFSEDTTFKWDSCAAHAILRAMGGGIVDLKECLERNPETGLDLPQLVYHVENEGAAGVDRWANKGGLIAYRSRKRLETFLSLLVQNLAPAETHT [INPP1] | -0.114 | 0.000408 | -0.083 | 0.0309
11 | MSFNLQSSKKLFIFLGKSLFSLLEAMIFALLPKPRKNVAGEIVLITGAGSGLGRLLALQFARLGSVLVLWDINKEGNEETCKMAREAGATRVHAYTCDCSQKEGVYRVADQVKKEVGDVSILINNAGIVTGKKFLDCPDELMEKSFDVNFKAHLWTYKAFLPAMIANDHGHLVCISSSAGLSGVNGLADYCASKFAAFGFAESVFVETFVQKQKGIKTTIVCPFFIKTGMFEGCTTGCPSLLPILEPKYAVEKIVEAILQEKMYLYMPKLLYFMMFLKSFLPLKTGLLIADYLGILHAMDGFVDQKKKL [SDR16C5] | -0.0428 | 0.864 | -0.987 | -0.478
